B1: C-terminal octapeptide of Hsp90 (TSRMEEVD) [not stated] / TPR domain of AtToc64 with a C-terminal hexa-histidine tag (AtToc64_TPR-H6) [Arabidopsis thaliana] (parent complex)
chain 1: TSRMEEVD
chain 2: AEIAKEKGNQAFKEKLWQKAIGLYSEAIKLSDNNATYYSNRAAAYLELGGFLQAEEDCTKAITLDKKNVKAYLRRGTAREMLGDCKGAIEDFRYALVLEPNNKRASLSAERLRKFQ
B2: C-terminal octapeptide of Hsp70 (GPTIEEVD) [not stated] / TPR domain of AtToc64 with a C-terminal hexa-histidine tag (AtToc64_TPR-H6) [Arabidopsis thaliana] (parent complex)
chain 1: GPTIEEVD
chain 2: B1 chain 2

Variants of: B1
Test: ITC; parent: 2.18e+05 nM

Q: How did the Kd turn out when chain 1 M4A was run?
A: 1080 µM

Q: For chain 1 E6A, which Kd is on record?
A: 1900 µM

Q: Which Kd does the source give for chain 1 D8A here?
A: 1400 µM

Variants of: B2
Test: ITC; parent: 2.3e+05 nM

Q: For chain 1 I4A, which Kd is on record?
A: 4600 µM

— PMC3877065, “Ligand Recognition by the TPR Domain of the Import Factor Toc64 from Arabidopsis thaliana” (PLoS ONE, 2013)
